The results in this text go back to article PMC3421056 (2012).

The term Kd denotes the concentration at which binding is half-saturated. Low values mean a tighter complex, high ones a looser complex.

The target of experiment [1] is T1, Factor Xa (Homo sapiens, UniProt P00742).
T1 chain: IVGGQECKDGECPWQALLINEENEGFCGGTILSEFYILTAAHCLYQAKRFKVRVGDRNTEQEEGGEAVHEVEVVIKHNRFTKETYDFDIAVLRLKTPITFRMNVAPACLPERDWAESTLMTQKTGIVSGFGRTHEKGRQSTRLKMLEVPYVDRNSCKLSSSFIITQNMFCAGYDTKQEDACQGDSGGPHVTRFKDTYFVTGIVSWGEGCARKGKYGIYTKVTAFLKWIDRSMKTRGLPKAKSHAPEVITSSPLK
The experiment in a line: ITC.

The target of experiment [2] is T1, Factor Xa. The experiment in a line: SPR kinetics. For orientation: Surface plasmon resonance follows binding to a sensor surface in real time, without labels.
The target in experiment [3] is T1, Factor Xa. The experiment in a line: SPR steady-state.
The target of experiment [4] is T1, Factor Xa. Kind of experiment: chromogenic substrate S2222 inhibition, apparent Ki.
Experiment [5] addresses T1, Factor Xa. Kind of experiment: chromogenic substrate S2222 inhibition, alphaKi.

B1: Lufaxin 1-278 (protein)
chain: DGDEYFIGKYKEKDETLFFASYGLKRDPCQIVLGYKCSNNQTHFVLNFKTNKKSCISAIKLTSYPKINQNSDLTKNLYCQTGGIGTDNCKLVFKKRKRQIAANIEIYGIPAKKCSFKDRYIGADPLHVDSYGLPYQFDQEHGWNVERYNIFKDTRFSTEVFYHKNGLFNTQITYLAEEDSFSEAREITAKDIKKKFSIILPNEEYKRISFLDVYWFQETMRKKPKYPYIHYNGECSNENKTCELVFDTDELMTYALVKVFTNPESDGSRLKEEDLGRG
As to B1, the results for the Kd in experiment [1], in experiment [2] and in experiment [3] were 2.1 nM, 3.86 nM and 9.69 nM, respectively. Moreover, in experiment [4], the Ki was 0.95 nM.

B2: Lufaxin 1-278 (protein)
chain: DGDEYFIGKYKEKDETLFFASYGLKRDPCQIVLGYKCSNNQTHFVLNFKTNKKSCISAIKLTSYPKINQNSDLTKNLYCQTGGIGTDNCKLVFKKRKRQIAANIEIYGIPAKKCSFKDRYIGADPLHVDSYGLPYQFDQEHGWNVERYNIFKDTRFSTEVFYHKNGLFNTQITYLAEEDSFSEAREITAKDIKKKFSIILPNEEYKRISFLDVYWFQETMRKKPKYPYIHYNGECSNENKTCELVFDTDELMTYALVKVFTNPESDGSRLKEEDLGRG
modifications: S2222 substrate-bound FXa
The molecule B2 returned a Ki in experiment [5] of 2.21 nM.
